Measured values reported in patent US20200317768A1 (published 2020).

T1: cynomolgus monkey FcγRIIa3 extracellular domain, C-terminal His-tag (cynomolgus monkey)
T1 construct: also called cyno FcγRIIa3; cynoFcgRIIa3; not shown: His-tag added to C-terminus
T1 chain: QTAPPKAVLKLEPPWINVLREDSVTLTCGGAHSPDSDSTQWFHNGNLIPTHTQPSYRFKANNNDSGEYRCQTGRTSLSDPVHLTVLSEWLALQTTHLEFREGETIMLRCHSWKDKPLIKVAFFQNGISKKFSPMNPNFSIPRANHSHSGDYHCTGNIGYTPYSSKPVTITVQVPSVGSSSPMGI

T2: human FcγRIIaR extracellular domain, C-terminal His-tag (human, UniProt P12318 34-217)
T2 construct: also called human FcγRIIa (type R); FcgRIIaR; not shown: His-tag added to C-terminus
T2 chain: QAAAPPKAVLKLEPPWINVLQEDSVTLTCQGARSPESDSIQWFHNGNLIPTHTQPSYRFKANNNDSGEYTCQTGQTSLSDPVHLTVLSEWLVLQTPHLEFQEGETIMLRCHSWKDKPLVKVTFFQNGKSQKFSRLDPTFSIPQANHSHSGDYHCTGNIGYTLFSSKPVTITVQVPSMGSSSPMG


Key:
[1] = molecular target: T1, cynomolgus monkey FcγRIIa3 …; experiment: SPR (Biacore), antibody captured, FcgR analyte, 25 C
[2] = molecular target: T2, human FcγRIIaR extracellular domain, …; experiment: as above

Binder | Kd [1] [nM] | Kd [2] [nM]
MS_M103205H795-SG1/M103202L889-SK1 (antibody, human IgG1, kappa, Parent antibody; also called MS1032LO06-SG1) heavy: not shown light: DIVMTQSPATLSLSPGERATLSCTSSQSVYHANWLSWFQQKPGQPPKLLIYWASTLAYGVPSRFSGSGSGTDFTLTISSLQPEDAATYYCAGGYGGGRYAFGQGTKVEIKRTVAAPSVFIFPPSDEQLKSGTASVVCLLNNFYPREAKVQWKVDNALQSGNSQESVTEQDSKDSTYSLSSTLTLSKADYEKHKVYACEVTHQGLSSPVTKSFNRGEC | 17000 | 1100
M103205H795-MY143/M103202L889-SK1 (antibody, human IgG1, kappa) heavy: QVTLKESGPVLVKPTETLTLTCTVSGIDLSHDDISWVRQAPGKGLEWVGIISYAGSTYYASWAKGRLTISKDTSKNQVVLTMTNMDPVDTATYYCARGVPAYSHGGDLWGQGTLVTVSSASTKGPSVFPLAPSSKSTSGGTAALGCLVKDYFPEPVTVSWNSGALTSGVHTFPAVLQSSGLYSLSSVVTVPSSSLGTQTYICNVNHKPSNTKVDKKVEPKSCDKTHTCPPCPAPELLSGPSVFLFPPKPKDTLMISRTPEVTCVVVDVSEEDPEVKFNWYVDGVEVHNAKTKPREEQYNSTYRVVSVLTVLHQDWLNGKEYKCKVSNKALPAPIEKTISKAKGQPREPQVYTLPPSREEMTKNQVSLTCLVKGFYPSDIAVEWESNGQPENNYKTTPMVLDSDGSFFLYSKLTVDKSRWQQGNVFSCSVMHEALHNHYTQKSLSLSP light: DIVMTQSPATLSLSPGERATLSCTSSQSVYHANWLSWFQQKPGQPPKLLIYWASTLAYGVPSRFSGSGSGTDFTLTISSLQPEDAATYYCAGGYGGGRYAFGQGTKVEIKRTVAAPSVFIFPPSDEQLKSGTASVVCLLNNFYPREAKVQWKVDNALQSGNSQESVTEQDSKDSTYSLSSTLTLSKADYEKHKVYACEVTHQGLSSPVTKSFNRGEC | 2900 | 83
M103205H795-MY142/M103202L889-SK1 (antibody, human IgG1, kappa) heavy: QVTLKESGPVLVKPTETLTLTCTVSGIDLSHDDISWVRQAPGKGLEWVGIISYAGSTYYASWAKGRLTISKDTSKNQVVLTMTNMDPVDTATYYCARGVPAYSHGGDLWGQGTLVTVSSASTKGPSVFPLAPSSKSTSGGTAALGCLVKDYFPEPVTVSWNSGALTSGVHTFPAVLQSSGLYSLSSVVTVPSSSLGTQTYICNVNHKPSNTKVDKKVEPKSCDKTHTCPPCPAPELLEGPSVFLFPPKPKDTLMISRTPEVTCVVVDVSEEDPEVKFNWYVDGVEVHNAKTKPREEQYNSTYRVVSVLTVLHQDWLNGKEYKCKVSNKALPAPIEKTISKAKGQPREPQVYTLPPSREEMTKNQVSLTCLVKGFYPSDIAVEWESNGQPENNYKTTPMVLDSDGSFFLYSKLTVDKSRWQQGNVFSCSVMHEALHNHYTQKSLSLSP light: DIVMTQSPATLSLSPGERATLSCTSSQSVYHANWLSWFQQKPGQPPKLLIYWASTLAYGVPSRFSGSGSGTDFTLTISSLQPEDAATYYCAGGYGGGRYAFGQGTKVEIKRTVAAPSVFIFPPSDEQLKSGTASVVCLLNNFYPREAKVQWKVDNALQSGNSQESVTEQDSKDSTYSLSSTLTLSKADYEKHKVYACEVTHQGLSSPVTKSFNRGEC | 25000 | 170
M103205H795-MY209/M103202L889-SK1 (antibody, human IgG1, kappa) heavy: QVTLKESGPVLVKPTETLTLTCTVSGIDLSHDDISWVRQAPGKGLEWVGIISYAGSTYYASWAKGRLTISKDTSKNQVVLTMTNMDPVDTATYYCARGVPAYSHGGDLWGQGTLVTVSSASTKGPSVFPLAPSSKSTSGGTAALGCLVKDYFPEPVTVSWNSGALTSGVHTFPAVLQSSGLYSLSSVVTVPSSSLGTQTYICNVNHKPSNTKVDKKVEPKSCDKTHTCPPCPAPELLNGPSVFLFPPKPKDTLMISRTPEVTCVVVDVSDEDPEVKFNWYVDGVEVHNAKTKPREELYNSTYRVVSVLTVLHQDWLNGKEYKCKVSNTALPKPIEKTISKAKGQPREPQVYTLPPSREEMTKNQVSLTCLVKGFYPSDIAVEWESNGQPENNYKTTPPVLDSDGSFFLYSKLTVDKSRWQQGNVFSCSVMHEALHNHYTQKSLSLSP light: DIVMTQSPATLSLSPGERATLSCTSSQSVYHANWLSWFQQKPGQPPKLLIYWASTLAYGVPSRFSGSGSGTDFTLTISSLQPEDAATYYCAGGYGGGRYAFGQGTKVEIKRTVAAPSVFIFPPSDEQLKSGTASVVCLLNNFYPREAKVQWKVDNALQSGNSQESVTEQDSKDSTYSLSSTLTLSKADYEKHKVYACEVTHQGLSSPVTKSFNRGEC | 1900 | 830

Now from value to binder:

Kd [1] [nM] | Kd [2] [nM] | Binder
2500 | 62 | M103205H795-MY227/M103202L889-SK1 (antibody, human IgG1, kappa) heavy: QVTLKESGPVLVKPTETLTLTCTVSGIDLSHDDISWVRQAPGKGLEWVGIISYAGSTYYASWAKGRLTISKDTSKNQVVLTMTNMDPVDTATYYCARGVPAYSHGGDLWGQGTLVTVSSASTKGPSVFPLAPSSKSTSGGTAALGCLVKDYFPEPVTVSWNSGALTSGVHTFPAVLQSSGLYSLSSVVTVPSSSLGTQTYICNVNHKPSNTKVDKKVEPKSCDKTHTCPPCPAPELLGYPSVFLFPPKPKDTLMISRTPEVTCVVVDVSDEDPEVKFNWYVDGVEVHNAKTKPREEQYNSTYRVVSVLTVLHQDWLNGKEYKCKVSNKALPKPIEKTISKAKGQPREPQVYTLPPSREEMTKNQVSLTCLVKGFYPSDIAVEWESNGQPENNYKTTPKVLDSDGSFFLYSKLTVDKSRWQQGNVFSCSVMHEALHNHYTQKSLSLSP light: DIVMTQSPATLSLSPGERATLSCTSSQSVYHANWLSWFQQKPGQPPKLLIYWASTLAYGVPSRFSGSGSGTDFTLTISSLQPEDAATYYCAGGYGGGRYAFGQGTKVEIKRTVAAPSVFIFPPSDEQLKSGTASVVCLLNNFYPREAKVQWKVDNALQSGNSQESVTEQDSKDSTYSLSSTLTLSKADYEKHKVYACEVTHQGLSSPVTKSFNRGEC
1300 | 630 | M103205H795-MY213/M103202L889-SK1 (antibody, human IgG1, kappa) heavy: QVTLKESGPVLVKPTETLTLTCTVSGIDLSHDDISWVRQAPGKGLEWVGIISYAGSTYYASWAKGRLTISKDTSKNQVVLTMTNMDPVDTATYYCARGVPAYSHGGDLWGQGTLVTVSSASTKGPSVFPLAPSSKSTSGGTAALGCLVKDYFPEPVTVSWNSGALTSGVHTFPAVLQSSGLYSLSSVVTVPSSSLGTQTYICNVNHKPSNTKVDKKVEPKSCDKTHTCPPCPAPELLNGPSVFLFPPKPKDTLMISRTPEVTCVVVDVSDEDPEVKFNWYVDGVEVHNAKTKPREEQYNSTYRVVSVLTVLHQDWLNGKEYKCKVSNKALPKPIEKTISKAKGQPREPQVYTLPPSREEMTKNQVSLTCLVKGFYPSDIAVEWESNGQPENNYKTTPKVLDSDGSFFLYSKLTVDKSRWQQGNVFSCSVMHEALHNHYTQKSLSLSP light: DIVMTQSPATLSLSPGERATLSCTSSQSVYHANWLSWFQQKPGQPPKLLIYWASTLAYGVPSRFSGSGSGTDFTLTISSLQPEDAATYYCAGGYGGGRYAFGQGTKVEIKRTVAAPSVFIFPPSDEQLKSGTASVVCLLNNFYPREAKVQWKVDNALQSGNSQESVTEQDSKDSTYSLSSTLTLSKADYEKHKVYACEVTHQGLSSPVTKSFNRGEC
 | 100 | M103205H795-MY228/M103202L889-SK1 (antibody, human IgG1, kappa) heavy: QVTLKESGPVLVKPTETLTLTCTVSGIDLSHDDISWVRQAPGKGLEWVGIISYAGSTYYASWAKGRLTISKDTSKNQVVLTMTNMDPVDTATYYCARGVPAYSHGGDLWGQGTLVTVSSASTKGPSVFPLAPSSKSTSGGTAALGCLVKDYFPEPVTVSWNSGALTSGVHTFPAVLQSSGLYSLSSVVTVPSSSLGTQTYICNVNHKPSNTKVDKKVEPKSCDKTHTCPPCPAPELLGYPSVFLFPPKPKDTLMISRTPEVTCVVVDVSDEDPEVKFNWYVDGVEVHNAKTKPREELYNSTYRVVSVLTVLHQDWLNGKEYKCKVSNKALPKPIEKTISKAKGQPREPQVYTLPPSREEMTKNQVSLTCLVKGFYPSDIAVEWESNGQPENNYKTTPPVLDSDGSFFLYSKLTVDKSRWQQGNVFSCSVMHEALHNHYTQKSLSLSP light: DIVMTQSPATLSLSPGERATLSCTSSQSVYHANWLSWFQQKPGQPPKLLIYWASTLAYGVPSRFSGSGSGTDFTLTISSLQPEDAATYYCAGGYGGGRYAFGQGTKVEIKRTVAAPSVFIFPPSDEQLKSGTASVVCLLNNFYPREAKVQWKVDNALQSGNSQESVTEQDSKDSTYSLSSTLTLSKADYEKHKVYACEVTHQGLSSPVTKSFNRGEC
5500 | 160 | M103205H795-MY219/M103202L889-SK1 (antibody, human IgG1, kappa) heavy: QVTLKESGPVLVKPTETLTLTCTVSGIDLSHDDISWVRQAPGKGLEWVGIISYAGSTYYASWAKGRLTISKDTSKNQVVLTMTNMDPVDTATYYCARGVPAYSHGGDLWGQGTLVTVSSASTKGPSVFPLAPSSKSTSGGTAALGCLVKDYFPEPVTVSWNSGALTSGVHTFPAVLQSSGLYSLSSVVTVPSSSLGTQTYICNVNHKPSNTKVDKKVEPKSCDKTHTCPPCPAPELLGYPSVFLFPPKPKDTLMISRTPEVTCVVVDVSDEDPEVKFNWYVDGVEVHNAKTKPREEQYNSTYRVVSVLTVLHQDWLNGKEYKCKVSNKALPKPIEKTISKAKGQPREPQVYTLPPSREEMTKNQVSLTCLVKGFYPSDIAVEWESNGQPENNYKTTPPVLDSDGSFFLYSKLTVDKSRWQQGNVFSCSVMHEALHNHYTQKSLSLSP light: DIVMTQSPATLSLSPGERATLSCTSSQSVYHANWLSWFQQKPGQPPKLLIYWASTLAYGVPSRFSGSGSGTDFTLTISSLQPEDAATYYCAGGYGGGRYAFGQGTKVEIKRTVAAPSVFIFPPSDEQLKSGTASVVCLLNNFYPREAKVQWKVDNALQSGNSQESVTEQDSKDSTYSLSSTLTLSKADYEKHKVYACEVTHQGLSSPVTKSFNRGEC
